From publication PMC5173319, “Crenactin forms actin-like double helical filaments regulated by arcadin-2” (eLife, 2016)

B2: Pyrobaculum calidifontis crenactin (natural protein, UniProt A3MWN5 1-432, looked up)
chain: MGVISDAYRLKYTFGVDFGTSYVKYGPITLNEPKMVQTRGLFLRDLPESVKMRIPPDVLARGLVVGDEEVRKYLSSVRDVQRNLKYPLKDGVARRDDEEAWRVLKELARYTLAQFPVSDPEFAGWLVAVALSALAPDYMYKAIFDIYDELASEFKIYAVTILPQPLAVAIAENAVNCVIVEGGHGNIQVAPISFALIREGLVALNRGGAEANAITREILKDIGYSDIAREEYAVEVVKRAVGLVPRRLKEAIRAAKSDPDRFVTKVRLSPVVEVEIPREYAWTRFLIGEIVFDPNHEEIKSYIEQSRLRIENAVIGDVTLYGEMDVASAIITSLRNVSVEIQERVASQIILSGGAFSWRVPPGMEDVAADSVTRVKIALEEKSPALASKVEVRLVSEPQYSVWRGAVIYGYALPLSLEWSDTTREGWRFPRR
notes: codon-optimised gene in pOPIN-S; Forms double-stranded helical filaments with ATP and MgCl2; The construct used for co-expression with arcadin-2 is not described; also called PCC; source: E. coli C41(DE3), purified (Ni-NTA, elution by SUMO tag cleavage with SENP1, Sephacryl S300); also co-expressed with arcadin-2 and purified as a complex; not shown: His6, N-terminal, cleaved; SUMO, N-terminal, …

What was measured:
[1] = target: B2; experiment: crystal structure; crenactin at 7 mg/ml mixed with arcadin-2 peptide at molar ratio 1 to 3; 0.31 M sodium acetate, 12.8% PEG 4000, 0.1 M sodium acetate pH 4.5; 1.6 Å; details: both partners purified
[2] = target: the molecule itself; experiment: cryo-EM structure; crenactin 0.5-1 mg/ml in 50 mM NH4HCO3, 20 mM KCl, polymerised with 2 mM ATP and 4 mM MgCl2 for 30 min on ice; helical reconstruction in RELION 2.0
[3] = target: B2; experiment: SPR; crenactin immobilised by amide coupling on CM5 chip (~700 RU), Biacore T200, PBS-0.005% Tween 20, 20°C; arcadin-2 or arcadin-2ΔC in 1:2 dilution series from 2 µM; kinetic fits, Kd = koff/kon; details: both partners purified

B1: arcadin-2 C-terminal peptide (residues 187-203) (peptide, UniProt A3MWN6 187-203, looked up)
peptide: RGGIGENEWVKILRSKR
notes: arcadin-2, Pyrobaculum calidifontis, NCBI WP_011850311.1, residues R187 to R203 (the last 17 amino acids); also called arcadin-2 peptide; C-peptide; source: synthetic peptide (Generon, U.K)
B1: binds [1].

B2: binds [2].

B3: Pyrobaculum calidifontis arcadin-2 (natural protein, UniProt A3MWN6 1-203, looked up)
chain: MDFPKVLLIRHFTEVLGMKYAGEGGEVLWFEEGLNRVAVGIYFTDLYEEAELYKRVGALMGLGASKVFLAVLPDALAFVDPRYFKANGVGLVVVDPAKGVDGVEVKIFARARPAAVEPLKIDAVKAALHEYLASELKRVEESLFEKVRRYVDQRVEEVKRALQAVEEAKRAAPPVQRAAAESAQEPRGGIGENEWVKILRSKR
notes: arcadin-2, Pyrobaculum calidifontis, NCBI WP_011850311.1; untagged, native protein from pHis17; The construct used for co-expression with crenactin is not described; also called full-length arcadin-2; source: E. coli C41(DE3), purified (heat step 60°C, ammonium sulphate precipitation, Sephacryl S300); also co-expressed with crenactin and purified as a complex
Work on B3 yielded a Kd [3] of 31 nM.
